These are literature values, as cited in article PMC4005919.

This data set concerns the target BID BH3 (Homo sapiens) (UniProt P55957).

Chain of BAK (Q16611 2-211): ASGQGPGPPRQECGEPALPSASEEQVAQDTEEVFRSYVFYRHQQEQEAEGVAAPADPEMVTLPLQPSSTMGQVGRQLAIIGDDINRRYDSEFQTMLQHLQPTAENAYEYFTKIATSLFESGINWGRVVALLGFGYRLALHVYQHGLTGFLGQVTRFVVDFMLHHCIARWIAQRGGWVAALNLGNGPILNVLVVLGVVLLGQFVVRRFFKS
Chain of BID BH3 (Homo sapiens) (P55957 80-99): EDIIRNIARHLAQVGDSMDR

Take BAK (from UniProt Q16611): the equilibrium dissociation constant (Kd) was 10 µM.
